We go through 1 molecule from patent US20130101549A1 (Biogen, published 2013).

Experiment [1] concerns the target T1, human HVEM-Ig (human, UniProt Q92956 39-202).
T1 construct: Expressed and purified in house; also called HVEM-Fc; Herpes virus entry mediator-Ig
T1 sequence (looked up): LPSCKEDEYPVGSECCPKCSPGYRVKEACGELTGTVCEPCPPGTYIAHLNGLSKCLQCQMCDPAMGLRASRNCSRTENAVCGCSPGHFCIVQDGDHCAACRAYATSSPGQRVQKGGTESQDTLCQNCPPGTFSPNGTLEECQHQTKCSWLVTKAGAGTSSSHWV
Nature of the experiment: ELISA on coated HVEM-Ig. As to the method: (§1) Human and murine ErbB2-Fc were obtained from R&D Systems. Wells of 96-well plates were coated with 2 ug/ml or 0.2 ug/ml of human or murine HER2-Fc by incubation overnight at 4-8° C. with either of these six proteins (80 ul/well of a 0.2 or 2 ug/ml solution in PBS). Wells were emptied, filled completely with a solution of PBS with 1% BSA (blocking buffer) and incubated at room temperature for 1 hour. Wells were emptied, washed twice PBS containing 0.05% Tween 20 (PBST) and filled with the samples (80 ul/well of 3× dilution series of the standard and supernatants in blocking buffer) prepared in another 96-well plate. After a 2-hour incubation at room temperature, the wells were emptied, washed three times with PBST and filled with a solution of HRP-conjugated goat pAbs anti-human kappa chain (80 ul/well of a 2000-fold dilution in blocking buffer). After 1-hour incubation, the wells were emptied and filled with a solution of HRP substrate prepared freshly. The color was left to develop for 3 minutes and was stopped by addition of an equal volume of 1N H₂SO₄. Absorbance was measured at 450 nm using a Plate Reader (SpectraMax, Molecular Devices). The data was processed and graphs were created using SoftMax Pro software.
Human and murine HVEM-Ig were expressed and purified in house.
For orientation: In an ELISA, binding on a coated surface is turned into a signal by an enzyme label.

Experiment [2] has as its target T2, human LTβR-Ig (human, UniProt P36941 31-227).
T2 construct: Expressed and purified in house; also called hLTbR-Ig; human LTBR-Ig
The experiment is described as follows: ELISA on coated LTbR-Ig. The protocol: as §1
(§2) Human and murine LTBR-Ig were expressed and purified in house.

In experiment [3] the target is T3, human HER2/ErbB2 on cells (human, UniProt P04626 23-1255).
T3 construct: whole, on cells; also called hHER2/ErbB2; wild type HER2/ErbB
Nature of the experiment: FACS on HER2-expressing cells.

The target in a further experiment is T4, human HER2-Fc (human, UniProt P04626 23-652).
T4 construct: Bought from R&D Systems: homodimeric fusion of the HER2 extracellular domain and human IgG1 Fc; also called human ErbB2-Fc; rhErbB2-Fc; not shown: Fc fragment of human IgG1
Nature of the experiment: Octet biolayer interferometry, receptor-Fc on anti-human Fc biosensor, culture supernatant. As to the method: (§3) Anti-human Fc-specific biosensors (Fortebio SKU 18-0001) were hydrated in OB (1×PBS supplemented with 1 mg/ml BSA, 0.05% NaN₃, and 0.02% TWEEN 20) for at least five minutes prior to assays. For each assay, the respective receptor—Fc fusion was diluted to 10 μg/ml in OB and allowed to bind to the biosensors for five minutes. The sensors were then incubated in the indicated culture supernatant for an additional five minutes, and subsequently transferred to fresh wells […].

Experiment [4] concerns the target T2, human LTβR-Ig. Described as above. As to the method:
as §3

The target in experiment [5] is T1, human HVEM-Ig. The experiment is described as above. As to the method: as §3
A further experiment has as its target T5, murine HER2-Fc (mouse; human, UniProt P70424 23-653).
T5 construct: extracellular domain; Bought from R&D Systems; also called murine ErbB2-Fc; not shown: Fc fragment of human IgG1
The experiment is described as follows: ELISA on coated muHER2-Fc, HRP anti-human kappa; the number is C of the printed 4-P fit (A -0.025, B 0.883, D 0.935, R^2 0.999); x axis: Fab equivalent concentration. The protocol:
as §1, with “Wells” for “Human and murine ErbB2-Fc were obtained from R&D Systems. Wells”, “coated” for “coated with 2 ug/ml or 0.2 ug/ml of human or murine HER2-Fc”, “goat antibodies against human kappa chain” for “either of these six proteins”, “5” for “0.2 or 2”
Human and murine HER2-Fc (homodimeric fusion proteins consisting of the extracellular domain of HER2 and the Fc fragment of human IgG1) were obtained from R&D Systems. […]

The next experiment has as its target T6, murine LTβR-Ig (mouse, UniProt P50284 31-223).
T6 construct: Expressed and purified in house; also called mLTbR; murine LTBR-Ig
The experiment is described as follows: ELISA, muLTBR-Ig coated at 0.2 ug/ml, HRP goat anti-human kappa; the number is C of the printed 4-P fit (A 0.064, B 0.872, D 1.453, R^2 0.999); Fab-Light is BIIB71F10-132 by paragraph 502. The protocol: as §1, §2

In the next experiment the target is T7, human LTBR-mIgG fusion.
T7 construct: kept apart from m25 (human Fc); not shown: exact end of the LTBR part
Nature of the experiment: sandwich ELISA after incubation at 200 ng/ml in human serum (cold or 37°C overnight): HER2-Fc on the plate, human LTBR-mIgG, HRP anti-mouse IgG; the signal needs both bindings at once. As to the method:
An ELISA assay was developed to detect LIGHT-Ab fusions after incubation with human sera. Briefly, 200 ng/mL of LIGHT-Ab fusions were incubated overnight in human serum at 37° C. The serum was assayed in sandwich ELISA as follows. HER2-Fc was immobilized to a solid surface, and was used to capture the LIGHT-Ab fusions. The serum incubated fusion proteins were added to the solid surface. Detection was effected using a human LTBR-mIgG fusion to bind to the LIGHT moiety of the fusion. Horseradish peroxidase (HRP) labeled anti-mouse IgG was used to detect bound LIGHT-Ab fusions.

T5 sequence (P70424 23-653): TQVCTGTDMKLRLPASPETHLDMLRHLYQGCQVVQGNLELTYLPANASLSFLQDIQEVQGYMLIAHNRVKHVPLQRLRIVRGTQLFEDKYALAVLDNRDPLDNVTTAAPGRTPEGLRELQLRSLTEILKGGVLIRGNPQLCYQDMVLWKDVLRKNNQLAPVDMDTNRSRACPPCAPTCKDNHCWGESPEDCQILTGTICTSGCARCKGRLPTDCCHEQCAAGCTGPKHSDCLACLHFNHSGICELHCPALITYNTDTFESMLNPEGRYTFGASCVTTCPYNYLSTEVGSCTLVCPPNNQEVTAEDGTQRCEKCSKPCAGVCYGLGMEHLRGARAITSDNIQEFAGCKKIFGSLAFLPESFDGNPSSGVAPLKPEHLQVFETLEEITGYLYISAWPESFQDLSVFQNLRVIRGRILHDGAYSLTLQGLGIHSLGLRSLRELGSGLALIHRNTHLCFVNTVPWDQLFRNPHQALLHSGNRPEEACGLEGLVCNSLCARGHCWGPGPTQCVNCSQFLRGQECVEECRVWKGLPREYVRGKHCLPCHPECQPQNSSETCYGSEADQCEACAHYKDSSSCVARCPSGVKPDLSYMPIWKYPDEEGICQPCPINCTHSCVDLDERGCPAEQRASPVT
T6 sequence (P50284 31-223): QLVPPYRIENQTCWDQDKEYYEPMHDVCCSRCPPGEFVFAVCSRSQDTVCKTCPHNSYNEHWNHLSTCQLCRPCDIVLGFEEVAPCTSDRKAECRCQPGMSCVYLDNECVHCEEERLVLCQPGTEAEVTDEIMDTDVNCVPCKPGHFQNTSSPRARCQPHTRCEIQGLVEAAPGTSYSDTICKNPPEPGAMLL

B1: 71F10 Fab-hLIGHT fusion with the (G4S)4 linker (BIIB71F10-132) (other)
heavy: EVQLLESGGGLVQPGGSLRLSCAASGFTFSSYGMVWVRQAPGKGLEWVSSISSSGGLTWYADSVKGRFTISRDNSKNTLYLQMNSLRAEDTAVYYCASPPGIAVARDYWGQGTLVTVSSASTKGPSVFPLAPSSKSTSGGTAALGCLVKDYFPEPVTVSWNSGALTSGVHTFPAVLQSSGLYSLSSVVTVPSSSLGTQTYICNVNHKPSNTKVDKKVEPKSCDKGGGGSGGGGSGGGGSGGGGSNPAAHLTGANSSLTGSGGPLLWETQLGLAFLRGLSYHDGALVVTKAGYYYIYSKVQLGGVGCPLGLASTITHGLYKRTPRYPEELELLVSQQSPCGRATSSSRVWWDSSFLGGVVHLEAGEEVVVRVLDERLVRLRDGTRSYFGAFMV
light: DIQMTQSPSSLSASVGDRVTITCRASQGISNYLAWYQQKPGKVPKLLIYAASTLQSGVPSRFSGSGSGTDFTLTISSLQPEDVATYYCQKYNSALLTFGGGTKVEIKRTVAAPSVFIFPPSDEQLKSGTASVVCLLNNFYPREAKVQWKVDNALQSGNSQESVTEQDSKDSTYSLSSTLTLSKADYEKHKVYACEVTHQGLSSPVTKSFNRGEC
notes: Trimer of Fab-LIGHT units; also called 71F10 Fab-(G4S)4-LIGHT
For orientation: EC50 means the concentration that produces a half-maximal response. Usually koff stands for the first-order rate constant of dissociation. A higher koff goes with fast dissociation. As to B1, the 50% effective concentration (EC50) was determined as 0.01 nM in the experiment with human HVEM-Ig [1]; 0.01 nM with human LTβR-Ig [2]; 0.5 nM in [3]; 0.0122 µg/mL with murine HER2-Fc; 0.0588 µg/mL with murine LTβR-Ig. The koff in the experiment with human HER2-Fc was 0.000117 s⁻¹; with human LTβR-Ig [4], 0.000197 s⁻¹; in the experiment with human HVEM-Ig [5], 0.00016 s⁻¹. Moreover, in the experiment with human LTBR-mIgG fusion, the binding result is recorded as “binds”.
